In data set [1] the target is G3BP1 NTF2L domain (residues 1-139), wild type (UniProt Q13283 1-139). The experiment in a line: differential scanning fluorimetry. (DSF heats the sample and reads unfolding from a dye or from intrinsic fluorescence.)
In data set [2] the target is G3BP1 NTF2L domain (residues 1-139), V11A (UniProt Q13283 1-139, V11A). Briefly: differential scanning fluorimetry.

We go through one protein from publication PMC11617104 (Molecular Biology of the Cell, 2024).

G3BP1 NTF2L domain (residues 1-139), V11A, sequence (Q13283 1-139 V11A): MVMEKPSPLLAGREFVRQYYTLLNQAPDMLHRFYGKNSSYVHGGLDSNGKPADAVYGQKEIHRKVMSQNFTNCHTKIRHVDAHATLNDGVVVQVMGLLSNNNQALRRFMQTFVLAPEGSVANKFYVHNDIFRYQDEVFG
G3BP1 NTF2L domain (residues 1-139), wild type, sequence (Q13283 1-139): as the sequence (Q13283 1-139 V11A) above, with A11V counted along it

RQRVQDLMAQMQGPYNFIQDSMLDFENQTLD [Caprin-1 peptide (residues 356-386)]: the “thermal shift (ΔTm) at 50 µM and 100 µM Caprin-1 peptide” value in data set [1] was roughly 3 °C. The “thermal shift (ΔTm)” value in data set [2] lay within 1 to 1.5 °C.
